Experimental data: the nanobody polyreactivity screen of Harvey et al. (2022)

Experiment: yeast display, Sf9 membrane polyspecificity reagent, FACS + sequencing; frameworks hold sequencing errors
Procedure, shortened: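 Nanobodies came from a synthetic yeast display library in Saccharomyces cerevisiae BJ5465, induced with galactose for 36–48 hours and stained for 1 hour at 4 °C with 10% biotinylated, detergent-solubilized Sf9 membrane reagent. Cells were enriched on streptavidin microbeads and then FACS-sorted, with low and high (top ~1%) gates set on anti-HA fluorescence for expression and streptavidin fluorescence for reagent binding. Each polyreactivity label reflects the gate a clone came from. Genes were amplified by colony PCR, sequenced by MiSeq 2 × 250 and filtered by CDR length.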

| Sequence | polyreactivity (PSR sort gate) |
| --- | --- |
| QVQLVESGGGLVQAGGSLRLSCAASGRIFALYAMGWYRQAPGKERELVATITRSGTNTYYADSVKGRFTISRDNAKNTVYLQMNRLKPEDTAVYYCAAYRFWQRTMGYWGQGTQVTVSS | high polyreactivity |
| QVQLVESGGGLVQAGGSLRLSCAASGRIFAQNAMGWYRPAPGKERELVAAISWGGGGTYYADSVKGRFTISRDNAKNTVYLQMNSLKPEDTAVYYCAADSPGFGAWDRYEYWGQGTQVTVSS | low polyreactivity |
| QVQLVESGGGLVQAGGSLRLSCAASGRIFARNAMGSYRQAPGKERELVATIRVGGGSTYYADSVKGRFTISRDNAKNTVYLQMNSLKPEDTAVYYCAVRQLYSYPGDRRGYYWGQGTQVTVSS | low polyreactivity |
| QVQLVESGGGLVQAGGSLRLSCAASGRIFARYVMGWYRQAPGKERELVAAISPSGSRTYYADSVKGRFTISRDNAKNTVYLQMNSLKPEDTAVYYCAATGVYTKNPRGMDYWGQGTQVTVSS | high polyreactivity |
| QVQLVESGGGLVQAGGSLRLSCAASGRIFASKAMGWYRQAPGKERELVAAITTTGGSTYYADSVKGRFTISRDNAKNTVYLQMNSLKPEDTAVYYCASRAIPRVRRYGSMNYWGQGTQVTVSS | high polyreactivity |
| QVQLVESGGGLVQAGGSLRLSCAASGRIFASYAMGWYRQAPGKERELVAAISAGGGSRTYYADSVKGRFTISRDNAKNTVYLQMNSLKPEDTAVYYCNTANSWQRQYYYWGQGTQVTVSS | high polyreactivity |
| QVQLVESGGGLVQAGGSLRLSCAASGRIFASYAMGWYRQAPGKERELVAAISLSGGSTYYADSVKGRFTISRDNAKNTVYLQMNSLKPEDTAVYYCNARAIGWRIYDYWGQGTQVTVSS | high polyreactivity |
| QVQLVESGGGLVQAGGSLRLSCAASGRIFASYGMGWYRQAPGKETELVATINSSGGSTYYADSVKGRFTISRDNAKNTVYLQLKSLKPEDTAVYYSNARHGYYKYGYWGQGTQVTVSS | low polyreactivity |
| QVQLVESGGGLVQAGGSLRLSCAASGRIFATNAMGWDRPAPGKERELVATITRSAGRTYYADSVKGRFTISRDNAKNTVYFQMNSLKPEDTAVYYCAASYWDTEPGYREYDYWGQGTQVTVSS | low polyreactivity |
| QVQLVESGGGLVQAGGSLRLSCAASGRIFAVNAMGWYRQAPGTERELVAAITNVASTKYADSVKGRFTISRDNAKNTVYLQMNSLKQEDTAVYYCNADLSQEDWKMDYWGQGTQVTVSS | low polyreactivity |
| QVQLVESGGGLVQAGGSLRLSCAASGRIFAVYAMGWYRQAAGKERELVAAITSTGSTNYADSVKGRFTISRDNAKNTVYLQMNSLKPEDTAVYYCAKRRHSSWLRYNYWGQGTQVTVSS | low polyreactivity |
| QVQLVESGGGLVQAGGSLRLSCAASGRIFAWNDMGWYRQAPGKERELVAAITSGGSTYYADSVKGRFTISRDNAKNTVYLQMNSLKPEDTAVYYCAADRVRRNDKLAYDYWGQGTQVTVSS | low polyreactivity |
| QVQLVESGGGLVQAGGSLRLSCAASGRIFAYKAMGWYRQEPGKERELVAAISWSGSSTYYADSVKGRFTISRDNAKNTVYLQMNSLKPEDTAVYYCAATPWYYYSTSYAYYFWGQGTQVTVSS | high polyreactivity |
| QVQLVESGGGLVQAGGSLRLSCAASGRIFAYNAMGWYRQAPGKERELVAAISSGGNTYYADSVKGRFTISRDNAKNTVYLQMNSLKPEDTAVYYCNAGVGWHRYYSNYDFWGQGTQVTVSS | low polyreactivity |
| QVQLVESGGGLVQAGGSLRLSCAASGRIFAYYAMGWYREAAGKERELVAAITTNGGGTYYADSVKGRFTISRDNAKNTVYLQMNSLKPEHTAVYYSNADKQRSSIFDYWGQGTQVTVSS | low polyreactivity |
| QVQLVESGGGLVQAGGSLRLSCAASGRIFAYYAMGWYRQAPGKERELVAAISGGGGSTYYADSVKGRFTISRDNAKNTVYLQMNSLKPEDTAVYFCAAKSSRYDYYYWGHGTQVTVSS | high polyreactivity |
| QVQLVESGGGLVQAGGSLRLSCAASGRIFAYYAMGWYRQAPGKERELVAAITTNGGGTYYADSVKGRFTISRDNAKNTFYLQMNSLKPEDTGVYYCNAVKQRSSIFDYWGQGTQVTVSS | low polyreactivity |
| QVQLVESGGGLVQAGGSLRLSCAASGRIFAYYAMGWYRQPPGKERELVAAISRSGVSTYYADSVKGRFTISRDNAKNTVYLQMNSLKPEDTAVYYCAKTLSPEGVPYDYWGQGTQVTVSS | low polyreactivity |
| QVQLVESGGGLVQAGGSLRLSCAASGRIFAYYLMGCYRQAPGKEREFVAAISWSGGRTYYADSVKGRFTISRDNAKNTVYLQMNSLKPEDTAVYYCNAGRPLWLAYGMDYWGQGTQVTVSS | low polyreactivity |
| QVQLVESGGGLVQAGGSLRLSCAASGRIFAYYVMGWYRQAPGKERELVAAITWSGTSTYYADSVKGRFTISRDNAKNTVYLQMNSLKPEDTAVYYCNAVWSRSTRGYDYWGQGTQVSVSS | high polyreactivity |
| QVQLVESGGGLVQAGGSLRLSCAASGRIFCGYMGWYRQAPGKEREFVAAISVRGGGTYYADSVKGRFTISRDNAKNTVYLQMNSLKPEDTAVDYCNTRGGWPYDYWGQGTQVTVSS | low polyreactivity |
| QVQLVESGGGLVQAGGSLRLSCAASGRIFDANAMGWYRQAPGKERELVAAITYSGGRTYYADSVKGRFTISRDNAKNTVYLQMNSLKPEDTAVYYCAKRYAYIYDSWGQGTQVTVSS | low polyreactivity |

| Sequence | polyreactivity (PSR sort gate) |
| --- | --- |
| QVQLVESGGGLVQAGGSLRLSCAASGRIFDDNAMGWYRQAPGKERELVADINNGTSTNYADSVKGRFTISRDNAKNTVYLQMNSLKPEDTAVYYCAADDYIYYRILGDSFVYKAYGYWGQGTQVTVSS | low polyreactivity |
| QVQLVESGGGLVQAGGSLRLSCAASGRIFDEYALGWYRQAPGKEREFVAAITYSAGSTYYADSVKGRFTISRDNAKNTVYLQMNSLKPEDTAVYDCAADRYYWWWYTYNYWGQGTQVTVSS | low polyreactivity |
| QVQLVESGGGLVQAGGSLRLSCAASGRIFDEYAMGWYRQAPGKERELVAAITSDGTTNYADSVKGRFTISRDNAKNTVYLQMNSLKPEDTAVYYCNAARPQSEPASQLDLYGYDYWGQGTQVTVSS | low polyreactivity |
| QVQLVESGGGLVQAGGSLRLSCAASGRIFDFNAMGWYRQAPGKERELVAAITWSGTSTYYADSVKGRFTISRDNAKNTVYLQMNSLKPEDTAVYYCAVDYSPWWAFSYSDYYYWGQGTQVTVSS | high polyreactivity |
| QVQLVESGGGLVQAGGSLRLSCAASGRIFDFYAMGWYRQAPGKERELVAAISWDGSDTYYADSVKGRFTISRDNAKNTVYLQMNSLKPEDTAVYYCAADYYSPSGQEYNYWGQGTQVTVSS | high polyreactivity |
| QVQLVESGGGLVQAGGSLRLSCAASGRIFDGNALGWYRKAPGKERELFAAISWTGGSTYYADSVKGRYTISRDNAKNTVYLQLNSLKPEDTAVYYCAADSGWWLDQLSWYDYWGQGTQVTVSS | low polyreactivity |
| QVQLVESGGGLVQAGGSLRLSCAASGRIFDGNAMGWYRQAPGKERELVAAISRIGGTYYADSVKGRFTISRDNAKNTVYLQMNSLKPEDTAVYYCAADPSSVGYHVEYDYWGQGTQVTVSS | low polyreactivity |
| QVQLVESGGGLVQAGGSLRLSCAASGRIFDGNAMGWYRQAPGKERELVATITRGGRTNYADSVKGRFTISRDNAKNTVYLQMNSLKPEDTAVYYCNARGSERVDTYSLYDYWGQGTQVTVSS | low polyreactivity |
| QVQLVESGGGLVQAGGSLRLSCAASGRIFDGNVMGWYRQAPGKERELVAAISRSGVRTYYADSVKGRFTISRDNAKKTVYLQMNSLKPEDTAVYYCAADVYRQFYPFKSDYWGQGTQVTVSS | high polyreactivity |
| QVQLVESGGGLVQAGGSLRLSCAASGRIFDIYAMGWYRQAPGKERELVAAIDESGGSTYYADSVKGRFTISRDNAKNTVYLQMNSLKPEDTAVYYCATDDTWTISYGWYWFTYEYWGQGTQVTVSS | low polyreactivity |
| QVQLVESGGGLVQAGGSLRLSCAASGRIFDIYAMGWYRQAPGKERELVAAITNSGVSTYYADSVKGRFTISRDNAKNTVYLQMNSLKPEDTAVYYCNAGDFERAVVVFIQHGGYYWGQGTQVTVSS | low polyreactivity |
| QVQLVESGGGLVQAGGSLRLSCAASGRIFDIYAMGWYRQAPGKERELVAGITSVGSTNYADSVKGRFTISRDNAKNTVYLQMNSLKPEDTAFYYCAADTSVHSEVDYWGQGTQGTVSS | low polyreactivity |
| QVQLVESGGGLVQAGGSLRLSCAASGRIFDKNAMGWYRQAPGKERELVAAINRSGGRTYYADSVKGRFTISRDNAKNTVYLQMNSLKPEDTAVYYCAADTQGSRYDYWGQGTQVTVSS | high polyreactivity |
| QVQLVESGGGLVQAGGSLRLSCAASGRIFDLNAMGWYRQAPGKERELVAAITWSGDSTYYADSVKGRFTISRDNAKNTVYLQMNSLKPEDTAVYYCAAASRTSYSWVDYEFDYWGQGTQVTVSS | low polyreactivity |
| QVQLVESGGGLVQAGGSLRLSCAASGRIFDLYAMGWYRQAPGKERELVASITTIGGRTYYADSVKGRFTISRDNAKNTVYLQMNSLKPEDTAVYYCAKSRWLYTTRSGYDYWGQGTQVTVSS | high polyreactivity |
| QVQLVESGGGLVQAGGSLRLSCAASGRIFDLYTMGWYRQAPGKERELVAAIRWSDGSTYYADSVKGRFTISRDNAKNTVYLQMNSLKPEDTAVYYCATDTAILINFVLYDYWGQGTQVTVSL | low polyreactivity |
| QVQLVESGGGLVQAGGSLRLSCAASGRIFDNYGMGWYRQAPGKERELVAAISSGGGRYYADSVTGRFTISRDNAKNTVYFQMHSLKPEDTAVYYCAKDPKYHLSGGYDYWGQGTQVTVSS | low polyreactivity |
| QVQLVESGGGLVQAGGSLRLSCAASGRIFDNYGMGWYRQAPGKERELVAAISSGGGTYYADSVKGRFTISRDNAKNTVYLQMNSLKPEDTAVYYCAKRRVYDRSFGRYDYWGQGTQVTVSS | low polyreactivity |
| QVQLVESGGGLVQAGGSLRLSCAASGRIFDNYVMGWYRQAPGKERELVAAISSGGGTYYADSVKGRFTISRDNAKNTVYLQMNSLKPEDTAVYYCAKRRVYDRSFGRYDYCGQGTQVTVSS | low polyreactivity |
| QVQLVESGGGLVQAGGSLRLSCAASGRIFDNYVMGWYRQAPGKERELVAAISSGGGTYYADSVKGRFTISRDNAKNTVYVQMNSLKPEDTAVYYCAKRRVYDRSFGRYDYWGQGTQVTVSS | low polyreactivity |
| QVQLVESGGGLVQAGGSLRLSCAASGRIFDPNVMGWYRQAPGKERELVAAIRTSGGRTYYADSVKGRFTISRDNAKNTVYLQMHSLKPEDTAVYYCAKVNRAFPKYLIYGYWGQGTQVTVSS | high polyreactivity |
